In US20210095007A1 (MIT, published 2021):

Key:
[1] = target: T1, Ebola virus glycoprotein on Ebola virus Mayinga 1976 strain (Zaire Ebola virus, Mayinga 1976 strain, UniProt Q05320 33-676); experiment: cell-based or functional assay
T1 sequence: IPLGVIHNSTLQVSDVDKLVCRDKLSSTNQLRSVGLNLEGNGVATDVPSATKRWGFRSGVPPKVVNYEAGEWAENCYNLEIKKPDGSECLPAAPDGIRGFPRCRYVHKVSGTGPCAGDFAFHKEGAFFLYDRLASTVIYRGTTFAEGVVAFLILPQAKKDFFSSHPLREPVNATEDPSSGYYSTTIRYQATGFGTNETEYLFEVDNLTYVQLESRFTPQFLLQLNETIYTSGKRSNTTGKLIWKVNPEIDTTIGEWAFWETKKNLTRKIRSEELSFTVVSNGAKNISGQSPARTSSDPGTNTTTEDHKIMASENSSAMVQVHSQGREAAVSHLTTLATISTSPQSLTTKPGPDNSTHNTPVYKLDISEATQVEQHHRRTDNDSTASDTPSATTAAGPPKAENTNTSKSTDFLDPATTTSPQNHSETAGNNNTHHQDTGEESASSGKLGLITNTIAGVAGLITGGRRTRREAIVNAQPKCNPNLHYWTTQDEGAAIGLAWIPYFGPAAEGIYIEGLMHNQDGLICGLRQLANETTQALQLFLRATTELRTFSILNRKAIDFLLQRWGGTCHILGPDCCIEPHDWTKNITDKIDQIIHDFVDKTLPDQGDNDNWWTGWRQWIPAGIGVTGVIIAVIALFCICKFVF

[2] = target: T2, Ebola virus glycoprotein on Ebola virus Kikwit 1995 strain (Zaire Ebola virus, Kikwit 1995 strain, UniProt P87666 33-676); experiment: cell-based or functional assay
T2 sequence: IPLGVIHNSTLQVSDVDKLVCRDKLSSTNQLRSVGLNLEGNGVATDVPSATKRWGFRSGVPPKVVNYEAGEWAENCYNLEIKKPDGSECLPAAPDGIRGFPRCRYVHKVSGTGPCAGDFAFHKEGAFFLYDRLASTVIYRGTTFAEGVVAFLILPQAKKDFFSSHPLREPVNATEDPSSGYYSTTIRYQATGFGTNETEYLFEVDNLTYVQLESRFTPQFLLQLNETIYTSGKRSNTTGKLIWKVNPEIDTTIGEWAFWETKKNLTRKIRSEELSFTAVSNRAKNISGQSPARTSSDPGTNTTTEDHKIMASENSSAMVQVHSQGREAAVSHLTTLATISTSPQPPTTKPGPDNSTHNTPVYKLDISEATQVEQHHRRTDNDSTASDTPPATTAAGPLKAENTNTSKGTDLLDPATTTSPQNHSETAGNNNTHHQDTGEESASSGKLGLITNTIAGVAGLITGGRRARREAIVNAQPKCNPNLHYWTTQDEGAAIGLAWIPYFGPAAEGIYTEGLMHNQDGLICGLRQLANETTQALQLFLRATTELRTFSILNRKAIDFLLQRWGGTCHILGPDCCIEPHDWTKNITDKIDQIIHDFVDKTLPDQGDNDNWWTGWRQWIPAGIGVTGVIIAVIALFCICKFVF

[3] = target: Ebola virus glycoprotein on Ebola virus Makona 2014 strain (Zaire Ebola virus, Makona 2014 strain); experiment: cell-based or functional assay
[4] = target: T3, Ebola GPdTM (IBT Bioservices) (Ebola virus, UniProt Q05320 33-650); experiment: ELISA, GPdTM coated at 1 µg/mL, anti-human IgG Fc-HRP detection
T3 sequence: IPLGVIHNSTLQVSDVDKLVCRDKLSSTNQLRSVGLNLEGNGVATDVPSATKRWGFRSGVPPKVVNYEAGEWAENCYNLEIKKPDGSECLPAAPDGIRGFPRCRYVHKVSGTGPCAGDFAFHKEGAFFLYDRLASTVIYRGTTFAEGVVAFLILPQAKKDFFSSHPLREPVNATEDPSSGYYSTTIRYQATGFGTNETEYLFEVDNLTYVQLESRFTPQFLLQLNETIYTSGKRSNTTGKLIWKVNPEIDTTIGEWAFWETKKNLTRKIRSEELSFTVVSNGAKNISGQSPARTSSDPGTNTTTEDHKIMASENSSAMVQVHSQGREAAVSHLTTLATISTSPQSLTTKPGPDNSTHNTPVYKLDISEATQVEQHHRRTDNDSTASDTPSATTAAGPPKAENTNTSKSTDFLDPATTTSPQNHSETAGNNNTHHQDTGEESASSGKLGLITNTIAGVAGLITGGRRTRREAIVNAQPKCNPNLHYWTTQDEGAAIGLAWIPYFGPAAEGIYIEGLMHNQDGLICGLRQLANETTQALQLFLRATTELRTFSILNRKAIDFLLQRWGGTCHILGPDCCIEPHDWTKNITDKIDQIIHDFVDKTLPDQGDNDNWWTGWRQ

B1: 13C6.1 (antibody, V domains shown)
VH: QLTLKESGPTLVKPTQTLSLTCTFSGFSLSTSGVGVGWFRQPPGKALEWLALIWWDDDKYYSPSLKSRLTITKDTSKNQVVLTMTNMDPVDTATYYCARRDPFGYDNAMGYWGQGTTVTVSS
VL: DIVMTQSPSFLSASVGDRVTITCKASQNVGTAVAWYQQKPGKAPKLLIYSASNRYSGVPSRFSGSGSGTDFTLTISSLQPEDFATYFCQQYSSYPLTFGGGTKLEIK
In the case of B1, the “plaque reduction neutralization titre (Vero E6 cells, 200 pfu)” value (“plaque reduction neutralization titre” below) [1] is reported as greater than 50 µg/mL, the “plaque reduction neutralization titre” value [2] is reported as greater than 50 µg/mL and the “plaque reduction neutralization titre” value [3] is reported as greater than 50 µg/mL. It also gave an EC50 [4] of 136 pM.

B2: 2G4.3 (antibody, V domains shown)
VH: EVQLLESGGGLVQPGGSLRLSCVASGFTFSNYWMNWVRQAPGKGLEWLGFIRLKSNNYATHYSASVKGRFTISRDKSKSTLYLQMNTLQAEDSAIYYCTRGNGNYRAMDYWGQGTLVTVSS
VL: DIVMTQSPSSLSASVGDRVTITCRASENIYSSLAWYQQKPGKSPQLLVYSATILADGVPSRFSGSGSGTQYTLTISSLQPEDFATYYCQHFWGTPYTFGGGTKVEIK
B2 showed an EC50 [4] of 129 pM.

B3: 2G4.6 (antibody, V domains shown)
VH: EVQLLESGGGLVQPGGSLRLSCVASGFTFSNYWMNWVRQAPGKGLEWLAEIRLKSNNYATHYSASVKGRFTISRDKSKSTLYLQMNTLQAEDSAIYYCTRGNGNYRAMDYWGQGTLVTVSS
VL: DIVMTQSPSSLSASVGDRVTITCRASENIYSSLAWYQQKPGKSPQLLVYSATILADGVPSRFSGSGSGTQYTLTISSLQPEDFATYYCQHFWGTPYTFGGGTKVEIK
In the case of B3, the “plaque reduction neutralization titre” value [1] is reported as 2 µg/mL, the “plaque reduction neutralization titre” value [2] is reported as 4 µg/mL and the “plaque reduction neutralization titre” value [3] is reported as 2 µg/mL. For the same binder, the EC50 [4] was 109 pM.

B4: 4G7.10 (antibody, V domains shown)
VH: QVQLVQSGAEVKKPGSSVKVSCKASGSSFTGFSMNWVRQAPGQSLEWIGNIDTYYGGTTYNGKFKGRVTLTVDKSTSTAYMELSSLRSEDTAVYYCARSAYYGSTFAYWGQGTLVTVSS
VL: DIQMTQSPSSLSASVGDRVTITCRASENIYSYLAWYQQKPGKSPKLLVYNAKTLIEGVPSRFSGSGSGTDFTFTISSLQPEDIATYFCQHHFGTPFTFGQGTKVEIK
B4 showed an EC50 [4] of 120 pM.

B5: 4G7.1 (antibody, V domains shown)
VH: QVQLVQSGAEVKKPGSSVKVSCKASGSSFTGFSMNWVRQAPGQGLEWMGNIDTYYGGTTYNGKFKGRVTITADKSTSTAYMELSSLRSEDTAVYYCARSAYYGSTFAYWGQGTLVTVSS
VL: DIQMTQSPSSLSASVGDRVTITCRASENIYSYLAWYQQKPGKAPKLLVYNAKTLIEGVPSRFSGSGSGTDFTFTISSLQPEDIATYYCQHHFGTPFTFGQGTKVEIK
B5 was tested, and the EC50 [4] was 182 pM.

B6: 4G7.2 (antibody, V domains shown)
VH: QVQLVQSGAEVKKPGSSVKVSCKASGSSFTGFSMNWVRQAPGQGLEWMGNIDTYYGGTTYNGKFKGRVTITADKSTSTAYMELSSLRSEDTAVYYCARSAYYGSTFAYWGQGTLVTVSS
VL: DIQMTQSPSSLSASVGDRVTITCRASENIYSYLAWYQQKPGKSPKLLVYNAKTLIEGVPSRFSGSGSGTDFTFTISSLQPEDIATYFCQHHFGTPFTFGQGTKVEIK
Binder B6 has an EC50 [4] of 95.2 pM.

B7: 4G7.3 (antibody, V domains shown)
VH: QVQLVQSGAEVKKPGSSVKVSCKASGSSFTGFSMNWVRQAPGQGLEWMGNIDTYYGGTTYNGKFKGRVTITADKSTSTAYMELSSLRSEDTAVYYCARSAYYGSTFAYWGQGTLVTVSS
VL: DIVMTQSPSSLSASVGDRVTITCRASENIYSYLAWYQQKPGKSPKLLVYNAKTLIEGVPSRFSGSGSGTQFSLTISSLQPEDIATYFCQHHFGTPFTFGSGTKVEIK
Work on B7 yielded an EC50 [4] of 176 pM.

B8: 4G7.9 (antibody, V domains shown)
VH: QVQLVQSGAEVKKPGSSVKVSCKASGSSFTGFSMNWVRQAPGQSLEWIGNIDTYYGGTTYNGKFKGRVTLTVDKSTSTAYMELSSLRSEDTAVYYCARSAYYGSTFAYWGQGTLVTVSS
VL: DIQMTQSPSSLSASVGDRVTITCRASENIYSYLAWYQQKPGKAPKLLVYNAKTLIEGVPSRFSGSGSGTDFTFTISSLQPEDIATYYCQHHFGTPFTFGQGTKVEIK
For B8, the “plaque reduction neutralization titre” value [1] was 1 µg/mL, the “plaque reduction neutralization titre” value [2] was 1 µg/mL and the “plaque reduction neutralization titre” value [3] was 1 µg/mL. For the same binder, the EC50 [4] was 99.7 pM.

B9: 4G7.11 (antibody, V domains shown)
VH: QVQLVQSGAEVKKPGSSVKVSCKASGSSFTGFSMNWVRQAPGQSLEWIGNIDTYYGGTTYNGKFKGRVTLTVDKSTSTAYMELSSLRSEDTAVYYCARSAYYGSTFAYWGQGTLVTVSS
VL: DIVMTQSPSSLSASVGDRVTITCRASENIYSYLAWYQQKPGKSPKLLVYNAKTLIEGVPSRFSGSGSGTQFSLTISSLQPEDIATYFCQHHFGTPFTFGSGTKVEIK
B9 was tested, and the EC50 [4] was 145 pM.

B10: 4G7.12 (antibody, V domains shown)
VH: QVQLVQSGAEVKKPGSSVKVSCKASGSSFTGFSMNWVRQAPGQSLEWIGNIDTYYGGTTYNGKFKGRVTLTVDKSTSTAYMELSSLRSEDTAVYYCARSAYYGSTFAYWGQGTLVTVSS
VL: DIVMTQSPSSLSASVGDRVTITCRASENIYSYLAWYQQKPGKSPKLLVYNAVTLIEGVPSRFSGSGSGTQFSLTISSLQPEDIATYFCQHHFGTPFTFGSGTKVEIK
B10 was tested, and the EC50 [4] was 88.8 pM.

B11: 13C6 wild type (parent mouse monoclonal antibody 13C6) (antibody, V domains shown)
VH: QLTLKESGPGILKPSQTLSLTCSLSGFSLSTSGVGVGWFRQPSGKGLEWLALIWWDDDKYYNPSLKSQLSISKDFSRNQVFLKISNVDIADTATYYCARRDPFGYDNAMGYWGQGTSVTVSS
VL: DIVMTQSQKFMSTSVGDRVSLTCKASQNVGTAVAWYQQKPGQSPKLLIYSASNRYTGVPDRFTGSGSGTDFTLTISNMQSEDLADYFCQQYSSYPLTFGAGTKLELR
B11 showed an EC50 [4] of 74.7 pM.

B12: 2G4 wild type (parent mouse monoclonal antibody 2G4) (antibody, V domains shown)
VH: EVQLQQSGGGLMQPGGSMKLSCVASGFTFSNYWMNWVRQSPEKGLEWVAEIRLKSNNYATHYAESVKGRFTISRDDSKRSVYLQMNTLRAEDTGIYYCTRGNGNYRAMDYWGQGTSVTVSS
VL: DIVMTQSPASLSVSVGETVSITCRASENIYSSLAWYQQKQGKSPQLLVYSATILADGVPSRFSGSGSGTQYSLKINSLQSEDFGTYYCQHFWGTPYTFGGGTKLEIK
B12 showed an EC50 [4] of 154 pM.

B13: 4G7 wild type (parent mouse monoclonal antibody 4G7) (antibody, V domains shown)
VH: EVQLQQSGPELEMPGASVKISCKASGSSFTGFSMNWVKQSNGKSLEWIGNIDTYYGGTTYNQKFKGKATLTVDKSSSTAYMQLKSLTSEDSAVYYCARSAYYGSTFAYWGQGTLVTVSS
VL: DIVMTQSPASLSASVGETVTITCRASENIYSYLAWYQQKQGKSPQLLVYNAKTLIEGVPSRFSGSGSGTQFSLKINSLQPEDFGSYFCQHHFGTPFTFGSGTELEIK
For B13, the EC50 [4] was 72.5 pM.
